The text below walks through data of PMC4031069 (Nature materials, 2014).

For this assay, the target named is monomeric biotinylated FN7-10 (biotin (biotinylated; site not stated)). As to the kind of experiment: SPR. A general note: SPR reads the build-up and loss of mass on a sensor chip optically.

B1: purified recombinant human αvβ6 integrin (receptor)
chain 1: FNLDVDSPAEYSGPEGSYFGFAVDFFVPSASSRMFLLVGAPKANTTQPGIVEGGQVLKCDWSSTRRCQPIEFDATGNRDYAKDDPLEFKSHQWFGASVRSKQDKILACAPLYHWRTEMKQEREPVGTCFLQDGTKTVEYAPCRSQDIDADGQGFCQGGFSIDFTKADRVLLGGPGSFYWQGQLISDQVAEIVSKYDPNVYSIKYNNQLATRTAQAIFDDSYLGYSVAVGDFNGDGIDDFVSGVPRAARTLGMVYIYDGKNMSSLYNFTGEQMAAYFGFSVAATDINGDDYADVFIGAPLFMDRGSDGKLQEVGQVSVSLQRASGDFQTTKLNGFEVFARFGSAIAPLGDLDQDGFNDIAIAAPYGGEDKKGIVYIFNGRSTGLNAVPSQILEGQWAARSMPPSFGYSMKGATDIDKNGYPDLIVGAFGVDRAILYRARPVITVNAGLEVYPSILNQDNKTCSLPGTALKVSCFNVRFCLKADGKGVLPRKLNFQVELLLDKLKQKGAIRRALFLYSRSPSHSKNMTISRGGLMQCEELIAYLRDESEFRDKLTPITIFMEYRLDYRTAADTTGLQPILNQFTPANISRQAHILLDCGEDNVCKPKLEVSVDSDQKKIYIGDDNPLTLIVKAQNQGEGAYEAELIVSIPLQADFIGVVRNNEALARLSCAFKTENQTRQVVCDLGNPMKAGTQLLAGLRFSVHQQSEMDTSVKFDLQIQSSNLFDKVSPVVSHKVDLAVLAAVEIRGVSSPDHVFLPIPNWEHKENPETEEDVGPVVQHIYELRNNGPSSFSKAMLHLQWPYKYNNNTLLYILHYDIDGPMNCTSDMEINPLRIKISSLQTTEKNDTVAGQGERDHLITKRDLALSEGDIHTLGCGVAQCLKIVCQVGRLDRGKSAILYVKSLLWTETFMNKENQNHSYSLKSSASFNVIEFPYKNLPIEDITNSTLVTTNVTWGIQPAPMPV
chain 2: GCALGGAETCEDCLLIGPQCAWCAQENFTHPSGVGERCDTPANLLAKGCQLNFIENPVSQVEILKNKPLSVGRQKNSSDIVQIAPQSLILKLRPGGAQTLQVHVRQTEDYPVDLYYLMDLSASMDDDLNTIKELGSRLSKEMSKLTSNFRLGFGSFVEKPVSPFVKTTPEEIANPCSSIPYFCLPTFGFKHILPLTNDAERFNEIVKNQKISANIDTPEGGFDAIMQAAVCKEKIGWRNDSLHLLVFVSDADSHFGMDSKLAGIVIPNDGLCHLDSKNEYSMSTVLEYPTIGQLIDKLVQNNVLLIFAVTQEQVHLYENYAKLIPGATVGLLQKDSGNILQLIISAYEELRSEVELEVLGDTEGLNLSFTAICNNGTLFQHQKKCSHMKVGDTASFSVTVNIPHCERRSRHIIIKPVGLGDALELLVSPECNCDCQKEVEVNSSKCHHGNGSFQCGVCACHPGHMGPRCECGEDMLSTDSCKEAPDHPSCSGRGDCYCGQCICHLSPYGNIYGPYCQCDNFSCVRHKGLLCGGNGDCDCGECVCRSGWTGEYCNCTTSTDSCVSEDGVLCSGRGDCVCGKCVCTNPGASGPTCERCPTCGDPCNSKRSCIECHLSAAGQAREECVDKCKLAGATISEEEDFSKDGSVSCSLQGENECLITFLITTDNEGKTIIHSINEKDCPKPPNIP
Take B1: the “kont relative to α5β1” value was around 0.5 fold.
